Source: US6365366

Assays:
Parameters in all cases: key to the marks not given beside the values
[1] = tested on: T1, DQGSFCTSL peptide (SEQ ID NO:7)
T1 sequence: DQGSFCTSL

[2] = tested on: T2, VDQGSMAASLVGT peptide (SEQ ID NO:9)
T2 sequence: VDQGSMAASLVGT

[3] = tested on: T3, AKDVDQGSVCTSFVGTLQY peptide (SEQ ID NO:11)
T3 sequence: AKDVDQGSVCTSFVGTLQY

[4] = tested on: T4, AKDVDQGSFCTSLVGTLQY peptide (SEQ ID NO:13)
T4 sequence: AKDVDQGSFCTSLVGTLQY

[5] = tested on: T5, VDQGSLAASFVGT peptide (SEQ ID NO:8)
T5 sequence: VDQGSLAASFVGT

[6] = tested on: T6, GGSLMTSF peptide (SEQ ID NO:5)
T6 sequence: GGSLMTSF

[7] = tested on: T7, GGSLCTSF peptide (SEQ ID NO:4)
T7 sequence: GGSLCTSF

[8] = tested on: T8, VDQGSIAASFVGT peptide (SEQ ID NO:10)
T8 sequence: VDQGSIAASFVGT

[9] = tested on: T9, GGSFCTSL peptide (SEQ ID NO:6)
T9 sequence: GGSFCTSL

[10] = tested on: T10, AKDVDQGSLCTSLVGTLQY peptide (SEQ ID NO:12)
T10 sequence: AKDVDQGSLCTSLVGTLQY

Measured: T2K substrate specificity

T2K kinase
+++: all assays above
